The target in assay [1] is cell-surface mouse PD-1 on EL4 and RMA T lymphoma cells (mouse) (UniProt Q02242). As to the kind of experiment: flow cytometry competition on EL4 cells against mPD-L1-hFc at 2 µg/ml.
Assay [2] has as its target mouse PD-1 (coated in the competition ELISA) (mouse) (UniProt Q02242). As to the kind of experiment: competition ELISA, blocks mouse PD-L1 biot on coated mouse PD-1; dimeric fraction more efficient than monomeric.

Broadly, the IC50 is the midpoint of a concentration-inhibition curve. Low values mean greater potency, high ones weaker potency. In assay [1], “commercially available anti-mPD-1 antibody J43 (BioXCell)” had an IC50 of 1.6 mg/L.

B1: WRTG18616-encoded anti-mPD-1 scFv, dimeric fraction (scFv, part only; not given: glycine-serine linker, V domains shown)
VH: EVRLLESGGGLVKPEGSLKLSCVASGFTFSDYFMSWVRQAPGKGLEWVAHIYTKSYNYATYYSGSVKGRFTISRDDSRSMVYLQMNNLRTEDTATYYCTRDGSGYPSLDFWGQGTQVTVSS
VL: YELTQPPSASVNVGETVKITCSGDQLPKYFADWFHQRSDQTILQVIYDDNKRPSGIPERISGSSSGTTATLTIRDVRAEDEGDYYCFSGYVDSDSKLYVFGSGTQLTVLHHHHHH
modifications: Dimer of two identical scFv polypeptides (first gel-filtration peak); one copy is given. VH and VL are joined in the real chain by a Gly-Ser linker of undisclosed letters and are given here as two chains.
As to B1, the difference in EC50 against the monomeric scFv in assay [2] is 1 log.

These data come from patent US20170157188A1.
